# Laboratory results reported in the nanobody polyreactivity screen of Harvey et al. (2022).
# Experiment: yeast display, Sf9 membrane polyspecificity reagent, FACS + sequencing; frameworks hold sequencing errors
# Procedure, shortened: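 Synthetic nanobody libraries on Saccharomyces cerevisiae BJ5465 were galactose-induced for 36–48 hours, stained 1 hour at 4 °C with 10% biotinylated, detergent-solubilized Sf9 membrane reagent and enriched on streptavidin microbeads. FACS then separated cells into low and high (top ~1%) gates by anti-HA (expression) and streptavidin (reagent binding) fluorescence. Genes were colony-PCR amplified, MiSeq 2 × 250 sequenced and CDR-length filtered. A clone's polyreactivity label is that of its gate of origin.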
row,Sequence,polyreactivity (PSR sort gate)
1,QVQPVESGGGLDQAGGSLRLSCAASGRILWSYAMGWYRQAPGKERELVAAIRTSGGSTYYADSVKGRFTISRDNAKNTVYLQMNSLKPEDTAVYYCAADRTLFSTVDYWGQGTQVTVSS,low polyreactivity
2,QVQPVESGGGLVQAGGSLRLSCAASGIIFPYYAMGWYRQEPGKERELVAAISTGGSTYYADSVKGRFTISRDNAKNTVYLQMNSLKPEDTAVYCCAAATSYGKSEYDYWGQGTQVTVSS,high polyreactivity
3,QVQQQESGGGLVQAGGSLRLSCAASGTIFQLTVMGRYRQAPGKERQLVASIDYGGNTNYADSVKGRFTISRDNAKNTVYLQMNSLKPEDTAVYYCAASSDSWTTHPYWGQGTQVTVSS,low polyreactivity
4,QVQQQESGGGLVQAGGSLRQSYAASGYIFPSLAMGWYRQAPGKEREFVAAIGRGSTNNYADSVKGRFTISRDNAKNTAYQQMNSLKPEDTAVYYSAAAASPLTRHLYWGQGTQVNVSS,low polyreactivity
5,QVQQVESGGGLVQAGGSLRLSCADSGRTFTLYAMGWYRQAPGKERELVAAITWRGGRTYYADSVKGRFTISRDNAKNTVYFQMNSLKPEVTEVYYCAARKYSPQLDRYGYWGQGTQVTVSS,high polyreactivity
6,QVQQVESGGGLVQAGGSLRLSSAASGITFRYYAMGWYRQAPGKERELVAAISSTGGSSYYADSVKGRFTISRDNAKNTVYLQMNSLKPEDTAVYYCNTQYNSQYDYWGQGTQVTVSS,high polyreactivity
7,QVQQVESGGGLVQAGGSLRLSWAASGRIFVINGMGWYRQAPGKERELVAGISSGGTTYADSVKGRFTISRDNAKNTVYLQMNSLKPEDTEVYYCAARGRYQPQFDYWGQGTQVTVSS,high polyreactivity
8,QVQREESGGGLFQAGGTLRLSCAASGFTFVWYAMGWNRQATGKERELVAAITRSGGSTYYADSVKGRFTISRDNAKNTVYLQMNSLKPEDTAVYYCNVSYGTFPGRALFANNFYYWGQGTQVTVSS,low polyreactivity
9,QVQREESGGGLVQAGGSLRLSCAASGRTFRYYAMGWSRQAPGKERELVAAITSGGGTNYADSVKGRFTISRDNAKNTVYLQMNSLKPEDTAVYYCAADHVYYDYDYWGQGTQVNVSS,low polyreactivity
10,QVQRVASGGGLVQAGGSLRLSWAASGSIVVRYTMGWYRQAPGKERELVAGISSRGGSTYYADSVKGRFTISRDNAKNTVSLQLNSLTPEDTAVYYCAKERSYSRSGGTYYYWGQRTQVTVSS,high polyreactivity
11,QVQRVDSGGGLVQAGGSLRVSCAASGFIFVANAMGGDREAPGKERELVADINRGSTYYADSVKGRFTISRDNAKNTVYLQMNSLKPEDTAVYYCAARHWRRSGIYYYWGQGTQVTVSS,high polyreactivity
12,QVQRVESAGGLVQAGGSLRLSCAASGFILDNYAMGWYRQAPGKERELVAAISGSGGSTYYADSVKGRFTISRDNAKNTVYLQMNSLKPEDTAVYYCNRDRLLRQYDYWGQGTQVTVSS,high polyreactivity
13,QVQRVESAGGLVQAGGSLRLSSAASGFTFRRYAMGWYRQARGKERELVARITWSGTSTDYADSEKGRFTISRDNAKNTVYLQMNSLKPEDTAVYYCAKAYTPWSGRYFAGVGYYYWGQGTQVTVSS,high polyreactivity
14,QVQRVESAGGLVQARGSLRLSCAASGRIFYYNAMGWYRQAPGKEREFVAAITSVGSTNYADSVKGLFTISRDNAKNTVYLQMNSLKPEDTAVYYCARASAWYVTLVGKYTKYDYWGQGTQVTVSS,low polyreactivity
15,QVQRVESGGCLVQAGGSLRLSCAASGYTFGSNAMGWYIQAPGKERELVAAITYGAGRTSYADSVKGRFTISRDNAKNTVYLQMNSLKPEDTAVYYCAAVWGYVIWVDSAVYREYDYWGQGTQVTVSS,high polyreactivity
16,QVQRVESGGGLVQAGCRLRLSCAASGTFFMGWYRQAPWKSRELVAGISISDGSTYYADSVKGRLTISRDNAKNTVYLQMKSLKPEDTAVYYFAAVFNPTTGFDYWGQGTQVTVSS,low polyreactivity
17,QVQRVESGGGLVQAGGILRLSCAASGSTFREYTMGWYRQAPGKEKELVAAITNSGGSTYYADSVKGRFTISRDNEKNTVYLQMNSLKPEDTAVYYCAADVGIVDYDYWGQGTQVTVSS,low polyreactivity
18,QVQRVESGGGLVQAGGRLRLTCAASGSTFYVNAMVWYRQAPGKERELVAGISFSDGSTYYADSVKGRFTISRDNAKNTVYLQMNSLKPEDTAVYYCATVGAFDIYYGYGYWGQGTQVTVSS,low polyreactivity
19,QVQRVESGGGLVQAGGSLLLSCAASGRIFVTYAKGWYRQAPGKERDLVASITGGGSRYYADSVKGRVTISRDKAKTTVYVQMTRLKPEDPAVNYCAAKSRSWYFGYGYWGQGTQVTVSS,high polyreactivity
20,QVQRVESGGGLVQAGGSLLLSCAASGSILYSYPMGWYRQAPGKERELVAAITGDGASTNYADSVKGRFTISRDNAKNTDYLQMNSLKPEDTAVYYCNAGRESDDVYEGSKRIGQFDYWGQGTLVTVSS,low polyreactivity
21,QVQRVESGGGLVQAGGSLRFSCAASGSTFSYYAMGWYSQAPGKERELVAVISRGGSTNYADSVKGRFTISRDNAKNTVYLQMNSLKPEDTAVYYCAAYVLPWRGRGQTEYGYSGQGTQVTVSS,low polyreactivity

row,Sequence,polyreactivity (PSR sort gate)
1,QVQRVESGGGLVQAGGSLRLSCAASGGIFDRYAMGWYRPAPGKERELVAVISGSVNTYADSVKGRFTISRDNAKNTVYLQMNSLKPEDTAVYYCATQFEGPSGFNYWGQGTQVTVSS,low polyreactivity
2,QVQRVESGGGLVQAGGSLRLSCAASGITFGEYAMGWYSPAPGNERELVAGINWSGDGTYYADSVKGRFTISRDNEKNTVYLQMNSLKPEDTAVYYCAVDPGGGNYIYYYNEYYYWGQGTQVTLSS,low polyreactivity
3,QVQRVESGGGLVQAGGSLRLSCAASGITFGPYAMGWYRQAPGKERELVAAITGSGGITYYADSVKGRFTISRDNAKNTVYLQMNSLKPEDTAVYYCAAEYPYVYGTYSDSYTEYDYWGQGTQLTVSS,low polyreactivity
4,QVQRVESGGGLVQAGGSLRLSCAASGITFSRYAMGWYRPAPGKERELVAAISRSGTRTYYADSVKGRFTISRDNAKNTVYLQMNSLKPEDSAVYYCAAESFASSFDYWGQGTQVTVSS,high polyreactivity
5,QVQRVESGGGLVQAGGSLRLSCAASGITIYHYAMGCYRQAPGKERELVAAISRSGGSTSYADSVKGRFTISRDNAKNTVYLQMNSLKPEDTAVYYFAARLVRESDPLGYWGQGTQVTVSS,high polyreactivity
6,QVQRVESGGGLVQAGGSLRLSCAASGRIFIANAMGWYRQAPGKERELVAAISFSGGSTYYADSVKGRFTISRDHAKTTVYLQMNSLNPEDTAVYYCNALYTSYYRPSGMGYWGQGTQVTVSS,high polyreactivity
7,QVQRVESGGGLVQAGGSLRLSCAASGRIFPTNAMGWYRQAPGKERELVAAIPVSGGSTYYADSVKGRFTISRDNAKNTVYLQMNSLKPEDTAVYYCAADSSTYRFDYWGQGTQVTVSS,low polyreactivity
8,QVQRVESGGGLVQAGGSLRLSCAASGRNSQFYDMGWYRQAPGKERELVATISGGASTNYADSVKGRFTISRDNAKNTVYLQMNSLKPEDTAVYYCARAGRSWDTLYKYYLEHDYWGQGTQVTVSS,low polyreactivity
9,QVQRVESGGGLVQAGGSLRLSCAASGRTFFGYAMGWYRQAPGKERELVAAITSGGSTNYADSVKGRFTISRDNAKNTVYLQMNSLKPEDTAVYYCAASEDGSVSYESTYPEYDYWGQGTQVTVSS,low polyreactivity
10,QVQRVESGGGLVQAGGSLRLSCAASGRTFNHYAMGWYRAAPGKERELVAAISRSGGTTYYADSVKGRFTISRENAKNTVYLQMNSLKPEDTAVYYCAARWWYRYNYDFWGQGTQVTVSS,high polyreactivity
11,QVQRVESGGGLVQAGGSLRLSCAASGRTFYPNAMGWSRQAPGKERELVADITYSGASTYYADSVKGRFTISRDNAKNTVYLQMNSMKPEDTAVYYCAKVYGQMVSGGYVTRYDFWGQGTQVTVSS,low polyreactivity
12,QVQRVESGGGLVQAGGSLRLSCAASGRTLARNAMGWYRQAPGKERELVASINGRTTRTYYADSVKGRFTISRDNAKNTVYLQMNSLKPEDTAVYYCAVKDRYSFRYDYWGQGTQVTVSS,high polyreactivity
13,QVQRVESGGGLVQAGGSLRLSCAASGSIFEPYAMGCYRQAPGKESELVATAITYSGGSTYYADSVKGRFTISRDNAKNTVYLQMNSLKPEDTAVYYCAADDLGDGVYKLDYWGLGTQVTVSS,low polyreactivity
14,QVQRVESGGGLVQAGGSLRLSCAASGSIFGYYAMGWSRQAPVKERELVAAITRSCGSTYYADSVKGRFTISRDNAKTTVYLQMNSLKPEDTAVYYCNAVRYAVRLPAFPGYDYLGQGTQVTVSS,high polyreactivity
15,QVQRVESGGGLVQAGGSLRLSCAASGSTFGIYDMGWYRQSPGKEMELVARITYSGGSRYYADSVKGRFTISRDNAKNTVYLQMNSLKPEDTAVYYCAARSWPHYFRYDYWGQGTQVTVSS,high polyreactivity
16,QVQRVESGGGLVQAGGSLRLSCAASGSTFTWNVMGWYRQAPGKERELVASITSGDSTYADSVKGRFTISRDNAKNTVYLQMNSLKPEDTAVYYCNVGYDQEKYGYWGQGTQVTVSS,low polyreactivity
17,QVQRVESGGGLVQAGGSLRLSCAASGSTFYRYAMVWYRQAPGKERELVATISGGGRTNYADSVKGRFTISRDNAKNTVYLQMNSLKPEDTAVYYCAVDSSSPYDYWGQGTQVTVSS,high polyreactivity
18,QVQRVESGGGLVQAGGSLRLSCAASGSTLRKYVMGWYRQAPGKERELVAAISSSGGRTYYADSVKGRFTISRDNAKYTVYLQMNSLKPEDTAVYYCAATRYIPGFYYWGQGTQVTVSS,high polyreactivity
19,QVQRVESGGGLVQAGGSLRLSCAASGYTFLRYAKGSYRQAPGKERELVAAISRRGGRTYYADSVKGRFTISRDNAKNTVYLQMNSLKPEDTAVYYCAAVNSTQTIGLMDYWGQGTQVTVSS,high polyreactivity
20,QVQRVESGGGLVQAGGSLRLSCAATGLIFSPYAMGWYRQAPGKEREFVAGITWRGGNTYYADSVKGRFTISRDNAKNTVYLQMNSLNPEDTAVYYCAAYERKFYTVSRWYKLDYWGQGTQVTVSS,high polyreactivity
